Among the data in article PMC12046049 (2025) are Kd values, retold here.

In test [1] the target is HSPB7ACD (α-crystallin domain, residues 78-162 of isoform 2) (human, UniProt Q9UBY9-2 78-162).
Test [2] deals with T1, HSPB5ACD (α-crystallin domain of HSPB5) (human).
T1 chain: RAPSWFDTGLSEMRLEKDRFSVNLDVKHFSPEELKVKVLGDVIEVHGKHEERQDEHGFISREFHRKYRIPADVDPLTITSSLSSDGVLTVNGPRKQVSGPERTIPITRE

Test [3] addresses HSPB1ACD (α-crystallin domain of HSPB1) (human).

Sequence of HSPB1ACD (α-crystallin domain of HSPB1) (human) (chain, as listed by the source): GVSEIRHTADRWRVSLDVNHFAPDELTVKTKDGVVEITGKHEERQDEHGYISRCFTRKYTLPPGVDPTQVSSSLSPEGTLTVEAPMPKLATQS

B1: HSPB5 C-terminal peptide (cognate peptide of HSPB5ACD) (peptide)
chain: ERTIPITRE
modifications: Limits are not printed. 156-164, containing the IPI motif, is taken by convention from the peptide in the HSPB5 ACD-peptide structure PDB 4M5S; check residues come from the IPI motif, not numbered in the text. Terminal chemistry not stated.
Take B1: the Kd in test [1] was 71 µM; in test [2], 23 µM.

With TFRTEIKI [HSPB7 C-terminal peptide (residues 168-175, TFRTEIKI)], the dissociation constant (Kd) stood at 378 µM in test [1], 186 µM in test [2] and 559 µM in test [3].

Molecule ITIPVTFE [HSPB1 C-terminal peptide (cognate peptide of HSPB1ACD)] displayed a dissociation constant (Kd) in test [1] of 109 µM.
